Experimental data taken from article PMC6992781.
“And” between values parts separate entries of the source, which are not always exact repeats. Identical values can stand only once.

Target: RVC20 (mature), recombinant human IgG1 (human)
Assay: BLI

RVC20 (mature), recombinant human IgG1 (human), sequence (heavy, as listed by the source, chain 1 of 2): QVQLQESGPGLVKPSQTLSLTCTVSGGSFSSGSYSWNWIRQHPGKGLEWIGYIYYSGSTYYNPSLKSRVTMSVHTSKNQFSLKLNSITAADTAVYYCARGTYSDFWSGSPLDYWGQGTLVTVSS
RVC20 (mature), recombinant human IgG1 (human), sequence (light, as listed by the source, chain 2 of 2): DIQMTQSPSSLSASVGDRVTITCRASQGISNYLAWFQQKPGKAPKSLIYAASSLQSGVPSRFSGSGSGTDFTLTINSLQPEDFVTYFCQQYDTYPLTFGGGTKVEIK

“RABV G domain III (E31-V56 and N182-D262 joined by three glycines), strain 9147FRA (domain or fragment)” was tested. Which Kd did it give?
The Kd was 7.95 nM and 11.3 nM and 12.2 nM.
